Starred links: 1 amine or outer side, 2 acyl side, 3 side chain; linkers in the order of their positions; H or OH if unused. Non-standard residues stand in square brackets, D forms with d. Groups on a side chain read outwards from the residue. No end group written: not given here. *: point of attachment. C18 diacid = O=C(O)CCCCCCCCCCCCCCCCC(=O)*; γGlu = O=C(O)[C@H](CCC(=O)[*:2])N[*:1]; Palmitoyl = CCCCCCCCCCCCCCCC(=O)*; AEEA = NCCOCCOCC(=O)O; Aib = CC(C)(N)C(=O)O

In this assay the target is human corticotropin-releasing factor 2α (CRF2 α receptor) (human), Q13324. Put plainly: cell-based or functional assay.
Chain of human corticotropin-releasing factor 2α (CRF2 α receptor) (human), Q13324 (Q13324 20-411): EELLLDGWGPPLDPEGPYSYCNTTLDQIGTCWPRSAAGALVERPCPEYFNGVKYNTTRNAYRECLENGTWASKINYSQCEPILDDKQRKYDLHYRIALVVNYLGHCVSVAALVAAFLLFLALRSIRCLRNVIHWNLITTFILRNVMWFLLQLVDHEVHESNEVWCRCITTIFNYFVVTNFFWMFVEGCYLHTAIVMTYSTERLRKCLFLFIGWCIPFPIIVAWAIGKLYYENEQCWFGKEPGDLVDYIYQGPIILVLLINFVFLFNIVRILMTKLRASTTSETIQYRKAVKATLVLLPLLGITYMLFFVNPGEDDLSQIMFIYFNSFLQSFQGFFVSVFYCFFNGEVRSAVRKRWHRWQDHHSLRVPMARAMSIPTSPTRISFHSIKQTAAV

B1: SEQ ID NO: 153 (peptide)
peptide: Ac-IVLSLDVPIGLK([AEEA-AEEA-γGlu-C18 diacid])QILLEQEKQEKEKQQAETNAQILAQV-NH2
SMILES: CC[C@H](C)[C@H](NC(C)=O)C(=O)N[C@H](C(=O)N[C@@H](CC(C)C)C(=O)N[C@@H](CO)C(=O)N[C@@H](CC(C)C)C(=O)N[C@@H](CC(=O)O)C(=O)N[C@H](C(=O)N1CCC[C@H]1C(=O)N[C@H](C(=O)NCC(=O)N[C@@H](CC(C)C)C(=O)N[C@@H](CCCCNC(=O)COCCOCCNC(=O)COCCOCCNC(=O)CC[C@H](NC(=O)CCCCCCCCCCCCCCCCC(=O)O)C(=O)O)C(=O)N[C@@H](CCC(N)=O)C(=O)N[C@H](C(=O)N[C@@H](CC(C)C)C(=O)N[C@@H](CC(C)C)C(=O)N[C@@H](CCC(=O)O)C(=O)N[C@@H](CCC(N)=O)C(=O)N[C@@H](CCC(=O)O)C(=O)N[C@@H](CCCCN)C(=O)N[C@@H](CCC(N)=O)C(=O)N[C@@H](CCC(=O)O)C(=O)N[C@@H](CCCCN)C(=O)N[C@@H](CCC(=O)O)C(=O)N[C@@H](CCCCN)C(=O)N[C@@H](CCC(N)=O)C(=O)N[C@@H](CCC(N)=O)C(=O)N[C@@H](C)C(=O)N[C@@H](CCC(=O)O)C(=O)N[C@H](C(=O)N[C@@H](CC(N)=O)C(=O)N[C@@H](C)C(=O)N[C@@H](CCC(N)=O)C(=O)N[C@H](C(=O)N[C@@H](CC(C)C)C(=O)N[C@@H](C)C(=O)N[C@@H](CCC(N)=O)C(=O)N[C@H](C(N)=O)C(C)C)[C@@H](C)CC)[C@@H](C)O)[C@@H](C)CC)[C@@H](C)CC)C(C)C)C(C)C
For the molecule B1, the EC50 [nM], 0% HSA came out at 33.7 nM.

B2: SEQ ID NO: 152 (peptide)
peptide: IVLSLDVPIKLK([AEEA-AEEA-γGlu-C18 diacid])QILLKQERQKK[Aib]REQAETNKRILERV-NH2
modifications: N-terminus assumed
SMILES: CC[C@H](C)[C@H](N)C(=O)N[C@H](C(=O)N[C@@H](CC(C)C)C(=O)N[C@@H](CO)C(=O)N[C@@H](CC(C)C)C(=O)N[C@@H](CC(=O)O)C(=O)N[C@H](C(=O)N1CCC[C@H]1C(=O)N[C@H](C(=O)N[C@@H](CCCCN)C(=O)N[C@@H](CC(C)C)C(=O)N[C@@H](CCCCNC(=O)COCCOCCNC(=O)COCCOCCNC(=O)CC[C@H](NC(=O)CCCCCCCCCCCCCCCCC(=O)O)C(=O)O)C(=O)N[C@@H](CCC(N)=O)C(=O)N[C@H](C(=O)N[C@@H](CC(C)C)C(=O)N[C@@H](CC(C)C)C(=O)N[C@@H](CCCCN)C(=O)N[C@@H](CCC(N)=O)C(=O)N[C@@H](CCC(=O)O)C(=O)N[C@@H](CCCNC(=N)N)C(=O)N[C@@H](CCC(N)=O)C(=O)N[C@@H](CCCCN)C(=O)N[C@@H](CCCCN)C(=O)NC(C)(C)C(=O)N[C@@H](CCCNC(=N)N)C(=O)N[C@@H](CCC(=O)O)C(=O)N[C@@H](CCC(N)=O)C(=O)N[C@@H](C)C(=O)N[C@@H](CCC(=O)O)C(=O)N[C@H](C(=O)N[C@@H](CC(N)=O)C(=O)N[C@@H](CCCCN)C(=O)N[C@@H](CCCNC(=N)N)C(=O)N[C@H](C(=O)N[C@@H](CC(C)C)C(=O)N[C@@H](CCC(=O)O)C(=O)N[C@@H](CCCNC(=N)N)C(=O)N[C@H](C(N)=O)C(C)C)[C@@H](C)CC)[C@@H](C)O)[C@@H](C)CC)[C@@H](C)CC)C(C)C)C(C)C
B2 gave an EC50 [nM], 0% HSA of 0.09 nM and an EC50 [nM], 0.1% HSA of 4.94 nM.

B3: SEQ ID NO: 155 (peptide)
peptide: IVLSLDVPIGLK([AEEA-AEEA-γGlu-C18 diacid])QILLEQEKQEKEKQQAEKNKRILERV-NH2
modifications: N-terminus assumed
SMILES: CC[C@H](C)[C@H](N)C(=O)N[C@H](C(=O)N[C@@H](CC(C)C)C(=O)N[C@@H](CO)C(=O)N[C@@H](CC(C)C)C(=O)N[C@@H](CC(=O)O)C(=O)N[C@H](C(=O)N1CCC[C@H]1C(=O)N[C@H](C(=O)NCC(=O)N[C@@H](CC(C)C)C(=O)N[C@@H](CCCCNC(=O)COCCOCCNC(=O)COCCOCCNC(=O)CC[C@H](NC(=O)CCCCCCCCCCCCCCCCC(=O)O)C(=O)O)C(=O)N[C@@H](CCC(N)=O)C(=O)N[C@H](C(=O)N[C@@H](CC(C)C)C(=O)N[C@@H](CC(C)C)C(=O)N[C@@H](CCC(=O)O)C(=O)N[C@@H](CCC(N)=O)C(=O)N[C@@H](CCC(=O)O)C(=O)N[C@@H](CCCCN)C(=O)N[C@@H](CCC(N)=O)C(=O)N[C@@H](CCC(=O)O)C(=O)N[C@@H](CCCCN)C(=O)N[C@@H](CCC(=O)O)C(=O)N[C@@H](CCCCN)C(=O)N[C@@H](CCC(N)=O)C(=O)N[C@@H](CCC(N)=O)C(=O)N[C@@H](C)C(=O)N[C@@H](CCC(=O)O)C(=O)N[C@@H](CCCCN)C(=O)N[C@@H](CC(N)=O)C(=O)N[C@@H](CCCCN)C(=O)N[C@@H](CCCNC(=N)N)C(=O)N[C@H](C(=O)N[C@@H](CC(C)C)C(=O)N[C@@H](CCC(=O)O)C(=O)N[C@@H](CCCNC(=N)N)C(=O)N[C@H](C(N)=O)C(C)C)[C@@H](C)CC)[C@@H](C)CC)[C@@H](C)CC)C(C)C)C(C)C
For the molecule B3, the EC50 [nM], 0% HSA was 8.87 nM.

B4: SEQ ID NO: 156 (peptide)
peptide: IVLSLDVPIGLK([AEEA-AEEA-γGlu-C18 diacid])QILLKQERQKK[Aib]REQAETNAQILAQV-NH2
modifications: N-terminus assumed
SMILES: CC[C@H](C)[C@H](N)C(=O)N[C@H](C(=O)N[C@@H](CC(C)C)C(=O)N[C@@H](CO)C(=O)N[C@@H](CC(C)C)C(=O)N[C@@H](CC(=O)O)C(=O)N[C@H](C(=O)N1CCC[C@H]1C(=O)N[C@H](C(=O)NCC(=O)N[C@@H](CC(C)C)C(=O)N[C@@H](CCCCNC(=O)COCCOCCNC(=O)COCCOCCNC(=O)CC[C@H](NC(=O)CCCCCCCCCCCCCCCCC(=O)O)C(=O)O)C(=O)N[C@@H](CCC(N)=O)C(=O)N[C@H](C(=O)N[C@@H](CC(C)C)C(=O)N[C@@H](CC(C)C)C(=O)N[C@@H](CCCCN)C(=O)N[C@@H](CCC(N)=O)C(=O)N[C@@H](CCC(=O)O)C(=O)N[C@@H](CCCNC(=N)N)C(=O)N[C@@H](CCC(N)=O)C(=O)N[C@@H](CCCCN)C(=O)N[C@@H](CCCCN)C(=O)NC(C)(C)C(=O)N[C@@H](CCCNC(=N)N)C(=O)N[C@@H](CCC(=O)O)C(=O)N[C@@H](CCC(N)=O)C(=O)N[C@@H](C)C(=O)N[C@@H](CCC(=O)O)C(=O)N[C@H](C(=O)N[C@@H](CC(N)=O)C(=O)N[C@@H](C)C(=O)N[C@@H](CCC(N)=O)C(=O)N[C@H](C(=O)N[C@@H](CC(C)C)C(=O)N[C@@H](C)C(=O)N[C@@H](CCC(N)=O)C(=O)N[C@H](C(N)=O)C(C)C)[C@@H](C)CC)[C@@H](C)O)[C@@H](C)CC)[C@@H](C)CC)C(C)C)C(C)C
Molecule B4 gave an EC50 [nM], 0% HSA of 1.06 nM.

B5: SEQ ID NO: 154 (peptide)
peptide: IVLSLDVPIGLK([AEEA-AEEA-γGlu-C18 diacid])QILLEQEKQEKEKQQAETNKRILERV-NH2
modifications: N-terminus assumed
SMILES: CC[C@H](C)[C@H](N)C(=O)N[C@H](C(=O)N[C@@H](CC(C)C)C(=O)N[C@@H](CO)C(=O)N[C@@H](CC(C)C)C(=O)N[C@@H](CC(=O)O)C(=O)N[C@H](C(=O)N1CCC[C@H]1C(=O)N[C@H](C(=O)NCC(=O)N[C@@H](CC(C)C)C(=O)N[C@@H](CCCCNC(=O)COCCOCCNC(=O)COCCOCCNC(=O)CC[C@H](NC(=O)CCCCCCCCCCCCCCCCC(=O)O)C(=O)O)C(=O)N[C@@H](CCC(N)=O)C(=O)N[C@H](C(=O)N[C@@H](CC(C)C)C(=O)N[C@@H](CC(C)C)C(=O)N[C@@H](CCC(=O)O)C(=O)N[C@@H](CCC(N)=O)C(=O)N[C@@H](CCC(=O)O)C(=O)N[C@@H](CCCCN)C(=O)N[C@@H](CCC(N)=O)C(=O)N[C@@H](CCC(=O)O)C(=O)N[C@@H](CCCCN)C(=O)N[C@@H](CCC(=O)O)C(=O)N[C@@H](CCCCN)C(=O)N[C@@H](CCC(N)=O)C(=O)N[C@@H](CCC(N)=O)C(=O)N[C@@H](C)C(=O)N[C@@H](CCC(=O)O)C(=O)N[C@H](C(=O)N[C@@H](CC(N)=O)C(=O)N[C@@H](CCCCN)C(=O)N[C@@H](CCCNC(=N)N)C(=O)N[C@H](C(=O)N[C@@H](CC(C)C)C(=O)N[C@@H](CCC(=O)O)C(=O)N[C@@H](CCCNC(=N)N)C(=O)N[C@H](C(N)=O)C(C)C)[C@@H](C)CC)[C@@H](C)O)[C@@H](C)CC)[C@@H](C)CC)C(C)C)C(C)C
As for B5, the EC50 [nM], 0% HSA is 15 nM and the EC50 [nM], 0.1% HSA amounted to 15.3 nM.

B6: SEQ ID NO: 17 (peptide)
peptide: IVLSLDVPIKLK([γGlu-Palmitoyl])KILLEQEKQKKQREQAETNKQILAQV-NH2
modifications: N-terminus assumed
SMILES: CCCCCCCCCCCCCCCC(=O)N[C@@H](CCC(=O)NCCCC[C@H](NC(=O)[C@H](CC(C)C)NC(=O)[C@H](CCCCN)NC(=O)[C@@H](NC(=O)[C@@H]1CCCN1C(=O)[C@@H](NC(=O)[C@H](CC(=O)O)NC(=O)[C@H](CC(C)C)NC(=O)[C@H](CO)NC(=O)[C@H](CC(C)C)NC(=O)[C@@H](NC(=O)[C@@H](N)[C@@H](C)CC)C(C)C)C(C)C)[C@@H](C)CC)C(=O)N[C@@H](CCCCN)C(=O)N[C@H](C(=O)N[C@@H](CC(C)C)C(=O)N[C@@H](CC(C)C)C(=O)N[C@@H](CCC(=O)O)C(=O)N[C@@H](CCC(N)=O)C(=O)N[C@@H](CCC(=O)O)C(=O)N[C@@H](CCCCN)C(=O)N[C@@H](CCC(N)=O)C(=O)N[C@@H](CCCCN)C(=O)N[C@@H](CCCCN)C(=O)N[C@@H](CCC(N)=O)C(=O)N[C@@H](CCCNC(=N)N)C(=O)N[C@@H](CCC(=O)O)C(=O)N[C@@H](CCC(N)=O)C(=O)N[C@@H](C)C(=O)N[C@@H](CCC(=O)O)C(=O)N[C@H](C(=O)N[C@@H](CC(N)=O)C(=O)N[C@@H](CCCCN)C(=O)N[C@@H](CCC(N)=O)C(=O)N[C@H](C(=O)N[C@@H](CC(C)C)C(=O)N[C@@H](C)C(=O)N[C@@H](CCC(N)=O)C(=O)N[C@H](C(N)=O)C(C)C)[C@@H](C)CC)[C@@H](C)O)[C@@H](C)CC)C(=O)O
B6: the EC50 [nM], 0% HSA worked out at 0.02 nM.

The values above are taken from patent publication US12679878B2, “CRF2 receptor agonists and their use in therapy” (SANOFI, priority 2020, dated 2026).
